Experiment: label from the status in PepcDB records
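Also: failed if final PepcDB status was selected cloned or expressed and not failed if soluble or beyond.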

Sequence	protein production
CASRQEHSLRIIHTTDLHGNVFPTDFKALRPTSGGMSRLASFLKAARSDRSELLLFDGGDVLQGDPTAYYYNYMDTTGTHLFSRAMNYLRYDAAIPGNHDIETGHAVYDKWVAGCDFPFLAANAIDTETGKPYWAPYKVFDRNGLRVALLGFITPAIPEWLPQSLWTGMRFDDIIESAKYWVPFVIQKEKPDFVVCVLHSGRENDNSNYLEDAGMTLAREVAGIDVLLLGHDHQEYSRRVKGAEADSVLVLNPANHLDKVSDVRLSLARKGDKVLHKRVEGGLTDISRLTPDSAFMAHFSSDEAAVRRFVNE	failed
CLVDPHTVLPSPISGPTETIRSLRRCAAAGGYGQVALLPRGQSWRDQPERLIGLQNADPSSVHLPLWGGFSLNGKGDELAPHGDLLEHGAIGLADDDAVVPLPLLERGLLLGEMGSCPVLIAPRDPNLQGDGLAREGVETLRAGWAPDPLISELLPLQQLLALQQRHPDRQLRLMNISTAAAVDLLGQADPQLKASVCWWHLLVDGSSLSSTDPGCRVRPSLGGAADRLRLRSALQSGLIQAVAVHAVPLDEEDMLLPADQRPPGLSGHHLVMPALWSALVDQGDLSIESLWELLSFGPSAFLDQP	failed
CRLLWDYVYQLLSDSRYENFIRWEDKESKIFRIVDPNGLARLWGNHKNRTNMTYEKMSRALRHYYKLNIIRKEPGQRLLFRFMKTPDEIMSGRTDRLEHLESQEL	not failed
CSDLPEIQNGWKTTSHTELVRGARITYQCDPGYDIVGSDTLTCQWDLSWSSDPPFCEKTEE	not failed
CTRAVYLGPDRMVVTGRTMDWKEDIMSNIYVFPRGMQRAGHNKEKTVNWTSKYGSVIATGYDIGTCDGMNEKGLVASLLFLPESVYSLPGDTRPAMGISIWTQYVLDNFATVREAVDEMKKETFRIDAPRMPNGGPESTLHMAITDETGNTAVIEYLDGKLSIHEGKEYQVMTNSPRYELQLAVNDYWKEVGGLQMLPGTNRSSDRFVRASFYIHAIPQTADAKIAVPSVLSVMRNVSVPFGINTPEKPHISSTRWRSVSDQKNKVYYFESTLTPNLFWLDLKKIDFSPKAGVKKLSLTKGEIYAGDAVKDLKDSQS	not failed
DAALCAFDADGVVTHWNREAERILGWTAAEAVGRRGFAGWAVRTADAEDVEARLMTAMQAPGRQVHEFALLTKDGGRVLVRTQSAAVHGPDGKPAGVYCAFSEVH	not failed
DAFTDQKIRQRYADLPGELHIIELEKDKNGLGLSLAGNKDRSRMSIFVVGINPEGPAAADGRMRIGDELLEINNQILYGRSHQNASAIIKTAPSKVKLVFIRNEDAVNQMA	not failed
DAGGGVGKELVDLKIIWNKTKHDVKVPLDSTGSELKQKIHSITGLPPAMQKVMYKGLVPEDKTLREIKVTSGAKIMVVGSTI	not failed
DDFVSLGTSGWHARVVSTVSDPSEVRQFALPDGGILRIASVLSVGGTADWARSVLLPGVSAKEADALMLQRPRLATGLLSLPSIQGESFPVRSHSVGGCILGMRGNQDPLTLYTAVIEGICMTLAHDIKPGGILPATGGGARSVPWMRILASVTNRNIHVTVSEDAALHGAASLAAYATSAEYLPTLAARAIVEIEPEPEVVASFEPLIAKHLELFRFAAALSY	failed
DGRIFKMFIEHLEFEKGLDAFSQSWIKALEDSEFLAILRLLFHHIVTSESAHEFAANGIDRLYKMVESQFGSGGDKELEWLIGRSLIQMSK	not failed
DIGGITGSFYLNTNALPTNADKIKSLILEVIEQCQIKSDDVVLYGCSKGGTAAVYHGLTNNYKIVAV	failed
DILVFTPRKSDAGISVILYPGAFVDALSYAPLANKLASSGYKTYIAEMPLNLAVFGKNRAADIIDEAPDEKFVIGGHSLGGVMSSRFAHENESEIEGVFFLASYPDKKGSLKNASFPALSITGTKDDVLNKDAYDKNKKYLPKDTTFVSIEGGNHAQFGSYGAQHGDGKATISEAEQTDQVSNALIAWLNTSVKNQE	not failed
DIVARLQTQASATVAIPKEHHRFVIGKNGEKLQDLELKTATKIQIPRPDDPSNQIKITGTKEGIEKARHEVLLISAEQDKR	not failed
DKEWNEKELQKLHCAFASLPKHKPGFWSEVAAAVGSRSPEECQRKYMENPRGKGSQKHVT	not failed
DKIAIIGSRRMSVYTKNCVFSLASMLKNAHLCVVSGGALGVDITASMAAMPNTIGIFANGLDQIYPRTNEKIIKQIYENALALSEYEDDYLPKNYDFLLRNRLVIALSKAVVVAQADIKSGSMQSAKLALELNKPLYVLPQRLGESTATNLLLKENKAKLICDFKEFVSEFASID	failed
DKIGIERFLFPLGLYSYFRWMKQYERDRGLFLSLLLSLLYESTHNFLSVIFSSITGDNFVLQY	failed
DKIHMLKQQNIIGIGTHNGITTIHTTNHKYETTEPLNRYEKRLNPTYFIRIHRSYIINTKHIKEVQQWFNYTYMVILTNGVKMQVGRSFMKDFKASIGLL	failed
DKSNKLQNLVAEQLVGCGFNEILNNSLTRAAYYDGLESYPSKNLVMLLNPLSADLNCMRQTLLFGGLESIAHNANRKNADLKFFEFGNCYHFDAEKKNPEKVLAPYSEDYHLGLWVTGKMVSNSWAHADENTSVYELKAYVENIFKRLGLDLHSLVVGNLSDDIYSTALTVNTKGGKRLATFGVVTKKMLKAFDVDNEVYYADLNWKELM	not failed
DLSSVIKASQTLASEIKLEKLLSTLMELVIENAGAKKCVLVLLKNERLLIEAIAKINQVPISTILVSIPIAESDEIPISLINYVSHTSQTLVIDDATTEDLFISDPYIQQKEPKSLLCTPIIKQGKLMGILYLENHLTTGAFTSDRLQVINLLMAQAAISLENAQLYGQLAEYSQNLELKVEQRT	failed
DPQILTTPGRDIAELRRIAGRPLSVAIDFEGGRVLRHRGILGDFPSPQVMAQTMTPEQVRGMAYDMGRSLFAHGINVNFAPVVDIEAGLEVVGDRAFSPDPLIDATYATAFAQGMADAGVRPVLKHFPGHGRASGDSHTAQVHTPPLAELEKLDLIPYGRVP	failed
DQPVINFGIISTESSQNLKSIWEPFLKDMSQQTGYQVKAFFAPDYAGIIQGMRFDKVDIAWYGNKAAMEAVDRAHGEIFAQTVAASGAPGYWSLLIANKDSKIDSLEDMLANAKSLTFGNGDPNSTSGYLVPGYYVFAKNNVDPVKAFKRTLNSSHEVNALAVANKQVDVATFNTEGMERLELTQPEKARQLKVIWKSPLIPGDPLVWRNNLSDEQKNKLRDFFFKYGANAEQKKVLADLQWSKFQPSDDDQLLPIRQLELFKQRTDVANNANLGAEEKAAKLKALDEELAKLEKRMAEREQKTAANAG	not failed
DRAVKEFEANGGSSAANGGGAKKRAKPAKKVAKKSKKEESDEDDDDESE	failed
DRRVRRNMEIAEIVGLDAHTKMLRTSTVFQWDSVKDEHAMVGTSKALEEIRRQRGWSVRELNEELERRRRVLEFMLSNGIRMFKDVSAVIHTYQVNPERAMKRLGVEEL	failed
DRTEERHAKGLRRQVDHRFDKLVGTISEGVLLMDDTGVFRDGNEAAQNILGRSLDEIIGSRFDDDIWNGLREDGSPLPNVEFPFWRAYVEREPVQEEVMGVYPPDAPPRWIRVNAQPLFRSGQEAPYAVLV	not failed
DSALENPAQVRNYLKAQLRHEPHEVFACLFLDNKHRVMTFEILFRGTINASYVHPRQVVKRALAHNAASLILCHNHPSGITTPSRSDIDLTKRLKEALKLVDVHVLDHVIVGDGEPLSMVEKGLM	not failed
DSLGREAKCYNELNGCTKIYDPVCGTDGNTYPNECVLCFENRKRQTSILIQKSGPC	failed
DSVDKTMHIGRQLGSLVNKGDILCLTGDLGTGKTHISKGIAEGLGIDEHITSPTFNIVNEYHSGRLTLYHFDVYRVNDPDEIEAIGFDEYIFGDGVSLIEWANYIEELIPEEYIHIKIEKLPDMGENFRKITINGYGDRYNYIKEIKE	failed
DTVLIVNKKAEIIWINNNITNLLGYLPDELLGKSIECLVPSRTREKHVNLRNSFINKPNKRSMNQGSGLWAVHKKNHEIPVCIDLNHYEESGEKFTVCSIRL	failed
DVARVQRLAAALATAGTVRDVSQAVVAALRRPLRADRIALAELENDRLVVTVLDPPDPESWPELWRLEWRTEWPDAPVRAMPTLAAALREGRARIWPAGTGDLEPALADVGPGGLAVLPLPAGGRMAGACLIGWDTPHDFGPDERALLTASAGLAGQALMRAHAFDAEHELVGMLQRQL	failed

— a protein production outcome set (Wang et al. 2014)
